Measurements as given in patent US20260242735A1 (UNIVERSIT T BASEL, published 2026).

B1: Refmab #6 (antibody, human IgG1, V domains shown)
VH: QVQLQQPGAEVVKPGASVKMSCKASGYTFTSYYIHWIKQTPGQGLEWVGVIYPGNDDISYNQKFQGKATLTADKSSTTAYMQLSSLTSEDSAVYYCAREVRLRYFDVWGQGTTVTVSS
VL: EIVLTQSPGSLAVSPGERVTMSCKSSQSVFFSSSQKNYLAWYQQIPGQSPRLLIYWASTRESGVPDRFTGSGSGTDFTLTISSVQPEDLAIYYCHQYLSSRTFGQGTKLEIK
B2: Refmab #5 (antibody, human IgG1, V domains shown)
VH: QVQLVQSGAEVKKPGASVKVSCKASGYTFTNYDINWVRQAPGQGLEWIGWIYPGDGSTKYNEKFKAKATLTADTSTSTAYMELRSLRSDDTAVYYCASGYEDAMDYWGQGTTVTVSS
VL: DIQMTQSPSSLSASVGDRVTINCKASQDINSYLSWFQQKPGKAPKTLIYRANRLVDGVPSRFSGSGSGQDYTLTISSLQPEDFATYYCLQYDEFPLTFGGGTKVEIK

Columns and labels:
Test in all cases: flow cytometry, transfected cells, IgG;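 further: CD33 point mutants transiently expressed in HEK293-T cells, antibody binding read by fluorescence, background subtracted and normalized to wild-type CD33 as 100%, duplicates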
[1] = biological target: human CD33 S131H (human, UniProt P20138 18-364)
human CD33 S131H, sequence (P20138 18-364 S131H limits assumed): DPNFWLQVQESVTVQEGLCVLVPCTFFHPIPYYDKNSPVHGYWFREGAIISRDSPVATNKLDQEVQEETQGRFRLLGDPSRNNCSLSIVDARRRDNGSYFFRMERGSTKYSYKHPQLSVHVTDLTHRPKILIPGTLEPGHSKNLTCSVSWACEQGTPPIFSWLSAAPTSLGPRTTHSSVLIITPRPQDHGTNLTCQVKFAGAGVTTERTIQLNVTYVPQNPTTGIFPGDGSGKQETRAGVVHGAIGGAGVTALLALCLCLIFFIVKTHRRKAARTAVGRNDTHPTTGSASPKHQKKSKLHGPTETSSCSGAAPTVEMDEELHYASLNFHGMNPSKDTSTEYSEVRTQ
Method: (§1) An alanine scan on human CD33 was performed to the determine the residues on CD33 that are involved in binding to the antibodies investigated. […] Briefly, a mutation library of CD33 was created by high-throughput, site-directed mutagenesis. Each residue was individually mutated to alanine, with alanine codons mutated to serine. The mutant library was arrayed in 384-well microplates and transiently transfected into HEK293-T. Following transfection, cells were incubated with the indicated antibodies (IgG or Fab) at concentrations pre-determined using an independent immunofluorescence titration curve on wild type CD33. […] Binding of each antibody to each mutant clone was determined in duplicates. For each point, background fluorescence was subtracted from the raw data, which were then normalized to antibody reactivity with wild type CD33.
(§2) Antibodies were screened for binding to the human CD33 variants in IgG format. […] For each mutation, background fluorescence was subtracted from the raw data, which were then normalized to antibody reactivity with wild-type CD33.

[2] = biological target: human CD33 K52E (human, UniProt P20138 18-364)
Method: as §1, §2

[3] = biological target: human CD33 D51Y (human, UniProt P20138 18-364)
human CD33 D51Y, sequence (P20138 18-364 D51Y limits assumed): as the sequence (P20138 18-364 S131H limits assumed) above, with D34Y, H114S counted along it
Method: as §1, §2

[4] = biological target: human CD33 P132F (human, UniProt P20138 18-364)
Method: as §1, §2

[5] = biological target: human CD33 R122E (human, UniProt P20138 18-364)
human CD33 R122E, sequence (P20138 18-364 R122E limits assumed): as the sequence (P20138 18-364 S131H limits assumed) above, with R105E, H114S counted along it
Method: as §1, §2

[6] = biological target: human CD33 L134F (human, UniProt P20138 18-364)
Method: as §1, §2

[7] = biological target: human CD33 L134T (human, UniProt P20138 18-364)
Method: as §1, §2

[8] = biological target: human CD33 P132Q (human, UniProt P20138 18-364)
Method: as §1, §2

[9] = biological target: human CD33 D51K (human, UniProt P20138 18-364)
Method: as §1, §2

[10] = biological target: human CD33 S131W (human, UniProt P20138 18-364)
human CD33 S131W, sequence (P20138 18-364 S131W limits assumed): as the sequence (P20138 18-364 S131H limits assumed) above, with H114W counted along it
Method: as §1, §2

[11] = biological target: human CD33 P132T (human, UniProt P20138 18-364)
Method: as §1, §2

[12] = biological target: human CD33 P132D (human, UniProt P20138 18-364)
Method: as §1, §2

[13] = biological target: human CD33 R122S (human, UniProt P20138 18-364)
human CD33 R122S, sequence (P20138 18-364 R122S limits assumed): as the sequence (P20138 18-364 S131H limits assumed) above, with R105S, H114S counted along it
Method: as §1, §2

[14] = biological target: human CD33 S131M (human, UniProt P20138 18-364)
Method: as §1, §2

[15] = biological target: human CD33 K52I (human, UniProt P20138 18-364)
human CD33 K52I, sequence (P20138 18-364 K52I limits assumed): as the sequence (P20138 18-364 S131H limits assumed) above, with K35I, H114S counted along it
Method: as §1, §2

[16] = biological target: human CD33 R122G (human, UniProt P20138 18-364)
human CD33 R122G, sequence (P20138 18-364 R122G limits assumed): as the sequence (P20138 18-364 S131H limits assumed) above, with R105G, H114S counted along it
Method: as §1, §2

[17] = biological target: human CD33 S131D (human, UniProt P20138 18-364)
human CD33 S131D, sequence (P20138 18-364 S131D limits assumed): as the sequence (P20138 18-364 S131H limits assumed) above, with H114D counted along it
Method: as §1, §2

[18] = biological target: human CD33 K52Y (human, UniProt P20138 18-364)
Method: as §1, §2

[19] = biological target: human CD33 M120L (human, UniProt P20138 18-364)
Method: as §1, §2

[20] = biological target: human CD33 S131T (human, UniProt P20138 18-364)
human CD33 S131T, sequence (P20138 18-364 S131T limits assumed): as the sequence (P20138 18-364 S131H limits assumed) above, with H114T counted along it
Method: as §1, §2

[21] = biological target: human CD33 K52D (human, UniProt P20138 18-364)
human CD33 K52D, sequence (P20138 18-364 K52D limits assumed): as the sequence (P20138 18-364 S131H limits assumed) above, with K35D, H114S counted along it
Method: as §1, §2

[22] = biological target: human CD33 M120I (human, UniProt P20138 18-364)
Method: as §1, §2

[23] = biological target: human CD33 K52L (human, UniProt P20138 18-364)
Method: as §1, §2

[24] = biological target: human CD33 L134Q (human, UniProt P20138 18-364)
Method: as §1, §2

[25] = biological target: human CD33 Y127R (human, UniProt P20138 18-364)
human CD33 Y127R, sequence (P20138 18-364 Y127R limits assumed): as the sequence (P20138 18-364 S131H limits assumed) above, with Y110R, H114S counted along it
Method: as §1, §2

[26] = biological target: human CD33 S131I (human, UniProt P20138 18-364)
human CD33 S131I, sequence (P20138 18-364 S131I limits assumed): as the sequence (P20138 18-364 S131H limits assumed) above, with H114I counted along it
Method: as §1, §2

[27] = biological target: human CD33 S131K (human, UniProt P20138 18-364)
Method: as §1, §2

[28] = biological target: human CD33 K52H (human, UniProt P20138 18-364)
Method: as §1, §2

[29] = biological target: human CD33 S131N (human, UniProt P20138 18-364)
Method: as §1, §2

[30] = biological target: human CD33 S131Q (human, UniProt P20138 18-364)
Method: as §1, §2

[31] = biological target: human CD33 Y127E (human, UniProt P20138 18-364)
human CD33 Y127E, sequence (P20138 18-364 Y127E limits assumed): as the sequence (P20138 18-364 S131H limits assumed) above, with Y110E, H114S counted along it
Method: as §1, §2

[32] = biological target: human CD33 S131F (human, UniProt P20138 18-364)
Method: as §1, §2

[33] = biological target: human CD33 P132V (human, UniProt P20138 18-364)
Method: as §1, §2

[34] = biological target: human CD33 D51N (human, UniProt P20138 18-364)
Method: as §1, §2

[35] = biological target: human CD33 V56R (human, UniProt P20138 18-364)
Method: as §1, §2

[36] = biological target: human CD33 S131Y (human, UniProt P20138 18-364)
Method: as §1, §2

[37] = biological target: human CD33 R122F (human, UniProt P20138 18-364)
Method: as §1, §2

[38] = biological target: human CD33 K52G (human, UniProt P20138 18-364)
human CD33 K52G, sequence (P20138 18-364 K52G limits assumed): as the sequence (P20138 18-364 S131H limits assumed) above, with K35G, H114S counted along it
Method: as §1, §2

Row | Binder | Mean % WT Binding [1] [%] | Mean % WT Binding [2] [%] | Mean % WT Binding [3] [%] | Mean % WT Binding [4] [%] | Mean % WT Binding [5] [%] | Mean % WT Binding [6] [%] | Mean % WT Binding [7] [%] | Mean % WT Binding [8] [%] | Mean % WT Binding [9] [%] | Mean % WT Binding [10] [%] | Mean % WT Binding [11] [%] | Mean % WT Binding [12] [%] | Mean % WT Binding [13] [%] | Mean % WT Binding [14] [%] | Mean % WT Binding [15] [%] | Mean % WT Binding [16] [%] | Mean % WT Binding [17] [%] | Mean % WT Binding [18] [%] | Mean % WT Binding [19] [%] | Mean % WT Binding [20] [%] | further results
1 | B1 | 68.5 | 121 | 71.3 | 1.6 | 96 | 90.7 | 88.4 | 5.4 | 77.7 | 1.1 | 11.7 | 87.6 | 108 | 4.3 | 71.6 | 112 | 88.9 | 26.3 | 101 | 99.5 | Mean % WT Binding [21]: 126%; Mean % WT Binding [22]: 102%; Mean % WT Binding [23]: 99.4%; Mean % WT Binding [24]: 47.1%; Mean % WT Binding [25]: 108%; Mean % WT Binding [26]: 24%; Mean % WT Binding [27]: 2.5%; Mean % WT Binding [28]: 86.1%; Mean % WT Binding [29]: 84.6%; Mean % WT Binding [30]: 18.9%; Mean % WT Binding [31]: 102%; Mean % WT Binding [32]: 2.4%; Mean % WT Binding [33]: 84.6%; Mean % WT Binding [34]: 92.6%; Mean % WT Binding [35]: 93.2%; Mean % WT Binding [36]: 24.5%; Mean % WT Binding [37]: 92.5%; Mean % WT Binding [38]: 105%
2 | B2 | 96.8 | 13.8 | 57.1 | 68.5 | 95.8 | 102 | 96.5 | 88.4 | 4.2 | 94.5 | 93.1 | 90.5 | 90.6 | 83.8 | 1.9 | 94.9 | 102 | 2 | 103 | 89 | Mean % WT Binding [21]: 3.2%; Mean % WT Binding [22]: 93%; Mean % WT Binding [23]: 2.2%; Mean % WT Binding [24]: 62.2%; Mean % WT Binding [25]: 108%; Mean % WT Binding [26]: 84.8%; Mean % WT Binding [27]: 96.4%; Mean % WT Binding [28]: 59.7%; Mean % WT Binding [29]: 101%; Mean % WT Binding [30]: 80.6%; Mean % WT Binding [31]: 93.9%; Mean % WT Binding [32]: 82.3%; Mean % WT Binding [33]: 86.9%; Mean % WT Binding [34]: 89.4%; Mean % WT Binding [35]: 87.4%; Mean % WT Binding [36]: 89.5%; Mean % WT Binding [37]: 90.1%; Mean % WT Binding [38]: 2.6%
